According to patent US11733236B2, “Flattop (fltp) is a novel biomarker for beta cell maturation” (Helmholtz Zentrum München—Deutsches Forschungszentrum Für …, priority 2014, dated 2023):

B1: Wnt3a: ligand of the canonical Wnt/β-catenin pathway (protein, UniProt P56704 19-352, looked up)
Protein Wnt-3a: SYPIWWSLAVGPQYSSLGSQPILCASIPGLVPKQLRFCRNYVEIMPSVAEGIKIGIQECQHQFRGRRWNCTTVHDSLAIFGPVLDKATRESAFVHAIASAGVAFAVTRSCAEGTAAICGCSSRHQGSPGKGWKWGGCSEDIEFGGMVSREFADARENRPDARSAMNRHNNEAGRQAIASHMHLKCKCHGLSGSCEVKTCWWSQPDFRAIGDFLKDKYDSASEMVVEKHRESRGWVETLRPRYTYFKVPTERDLVYYEASPNFCEPNPETGSFGTRDRTCNVSSHGIDGCDLLCCGRGHNARAERRREKCRCVFHWCCYVSCQECTRVYDVHTCK
B2: Wnt5a: noncanonical Wnt ligand of the Wnt/PCP pathway, obtained from R&D systems (protein, UniProt P41221 62-380, looked up)
Protein Wnt-5a: IIGAQPLCSQLAGLSQGQKKLCHLYQDHMQYIGEGAKTGIKECQYQFRHRRWNCSTVDNTSVFGRVMQIGSRETAFTYAVSAAGVVNAMSRACREGELSTCGCSRAARPKDLPRDWLWGGCGDNIDYGYRFAKEFVDARERERIHAKGSYESARILMNLHNNEAGRRTVYNLADVACKCHGVSGSCSLKTCWLQLADFRKVGDALKEKYDSAAAMRLNSRGKLVQVNSRFNSPTTQDLVYIDPSPDYCVRNESTGSLGTQGRLCNKTSEGMDGCELMCCGRGYDQFKTVQTERCHCKFHWCCYVKCKKCTEIVDQFVCK

Legend:
β cells = assay: multiple low-dose streptozotocin (STZ) model; format: in vivo, mouse; conditions: Fltp ZV/+ and Fltp ZV/ZV mice, 40 mg/kg i.p. daily for 5 days, vs vehicle, up to day 16
Method: […] Blood glucose level was measured every 2 days using Freestyle Lite glucometer (Abbot Laboratory). On day 16 after the first STZ injection, GTT was carried out as described and mice were euthanized.
To further test the requirement of PCP and Fltp in the context of β cell survival and regeneration, a multiple low-dose streptozotocin (STZ) model was employed (Kolb 1987). Streptozotocin is a naturally occurring chemical that is particularly toxic to β cells. For this purpose STZ was injected on five consecutive days and blood glucose regulation was measured every 2nd day thereafter in Fltp^ZV/+ and Fltp^ZV/ZV cohorts (FIG. 5C). […] Thus, loss of Fltp and planar polarization in β cells increases the vulnerability to STZ.

[1] = tested on: Fltp reporter expression in β cells of cultured islets; assay: Fltp reporter expression in isolated islets cultured in absence or presence of Wnt ligands; format: cell-based, mouse; conditions: islets of Fltp-T2A-iCre x mTmG mice cultured in absence or presence of ligand
Method: For lineage tracing studies, islet from eight-week-old Fltp^T2A-iCre-mTmG were isolated as described above. For FACS analysis islet were incubate with 0.25% Trypsin-EDTA (Invitrogen) to obtain single cell suspensions and intarcellular staining for Nkx6.1 was performed. For live imaging experiment isolated islets from Fltp^T2A-iCre-mTmG were cultured in matrigel and imaging was performed using Leica Confocal SP5 microscope.
Islets of these crossings were isolated and cultured in vitro. To establish the culture conditions, it is first tested if β cells depend on Wnt/PCP signaling to maintain Ftp reporter expression. Therefore, islets were cultured in absence or presence of ligands of the canonical Wnt/β-catenin (Wnt3a) and non-canonical Wnt/PCP pathway (Wnt5a). […] Using these culture conditions in combination with live single cell imaging will allow us to follow new born Fltp-Cre expressing mT and mG expressing cells over a time-course of two to four days.

EndoC-β H1 human β-cells = assay: NKX6.1 maturation marker expression in EndoC-β H1 cells cultured in Matrigel (3D), WNT5a stimulation, LSM immunofluorescence; format: cell-based
Method: (§1) EndoC-β H1 human β-cell line were cultured in adherence (2D culture) as described previously (Ravassard et al. (2011)). For 3D matrigel based cultures EndoC-β H1 were cultured in Matrigel Matrix Growth Factor Reduced (BD Bioscience, Germany) diluted 1:2 in their respective medium. For analysis of WNT5a induced β-cell maturation, samples were stimulated with 400 ng/ml of WNT5a (R&D systems, Germany) for 12 h or 3 days.
Staining of EndoC-β H1 cells was performed as follows: cells were fixed for 10 min in 4% PFA at 37° C. washed 3× with PBS containing 0.2% Tween and 0.3% BSA (washing buffer) at RT, and permeabilized for 30 min on a shaker at RT. Subsequently the cells were washed again 3× with washing buffer at RT, blocked for 1 h at RT in blocking buffer (PBS including 0.02% Tween, 10% FCS, 0.2% BSA, 3% serum). Then the primary antibody was added in blocking solution and incubated over night at 4° C. The cells were washed 3× in washing buffer, incubated with the secondary antibody for 2 h at RT, washed 3× in washing buffer and embedded in Elvanol for subsequent imaging. Imaging was performed with a Leica SP5 confocal microscope according to the manufacturers guidelines. The 63× glycerol objective was used.

[2] = tested on: isolated islets of P5 WT animals; assay: Ucn3 maturation marker staining in isolated, re-aggregated islets of P5 WT animals, Wnt5a stimulation, LSM; format: cell-based, mouse
Method: as §1
Murine pancreatic islets of Langerhans were isolated from 5 day old mice. After decapitation of the animals, the pancreas was dissected and supplemented with collagenase P (1 mg/ml) in HBSS (Hanks balanced salt solution) including 10% BSA (G-solution) and incubated for 15 min at 37° C. The pancreas was washed 2× in G-solution at RT and the islets were picked under the stereomicroscope (Leica). The islets were incubated in RPMI 1640 plus 5% FCS (fetal calf serum) and 1% P/S (penicillin and streptomycin). Afterwards the islets were trypsinized with 0.05% Trypsin […] at 37° C., washed twice with PBS plus 0.3% BSA and then seeded in iBidi 8 well chambers. For immunohistochemistry the protocol mentioned above was used. Fluorescent intensity was calculated by the Leica LAS-AF (Version 2.7.3.9723) software and the graphs were plotted with Excel.

| Molecule | loss of β cells (immunohistochemistry on pancreatic sections) (β cells) | maintenance of Fltp reporter gene expression [1] | expression of NKX6.1 (fluorescent intensity, NKX6.1 high vs low cells) (EndoC-β H1 human β-cells; EndoC-β H1 in Matrigel (3D) treated with WNT5a vs 3D without WNT5a, 400 ng/ml) | expression of maturation markers (EndoC-β H1 human β-cells; EndoC-β H1 stimulated with Wnt5a) | amount of maturation marker Ucn3 protein ([2]; islets of P5 WT animals treated with Wnt5a for 12 h vs non-treated, 400 ng/ml, n=3) | Ucn3 maturation marker staining ([2]; islets of P5 WT animals treated with Wnt5a for 3 days vs untreated, 400 ng/ml, n=3) | expression of maturation markers ([2]; neonatal isolated islets stimulated with Wnt5a) |
| --- | --- | --- | --- | --- | --- | --- | --- |
| CN(N=O)C(=O)N[C@H]1C(O)O[C@H](CO)[C@@H](O)[C@@H]1O (mixture of isomers) [STZ, Streptozotocin] | gradual loss of β cells |  |  |  |  |  |  |
| B1 |  | not canonical Wnt signaling |  |  |  |  |  |
| B2 |  | Fltp-reporter gene expression indeed depend on Wnt/PCP | higher expression of NKX6.1 | increased expression of maturation markers | higher amount of maturation marker Ucn3 protein | significant increase in Ucn3 maturation marker staining | increased expression of maturation markers |
